Reference: paper PMC8245648, “The R2R3-type MYB transcription factor MdMYB90-like is responsible for the enhanced skin color of an apple bud sport mutant”

Assays:
MdMYB90-like [1] = molecular target: T1, MdMYB90-like (Malus domestica (Fuji apple / M_Fuji …, UniProt A0A498J9W0 1-206)); test: EMSA; EMSA, Beyotime Chemiluminescent EMSA Kit, 1x kit binding buffer, 10 uL total; salt, pH and temperature not stated; conditions: protein: recombinant; tags: MBP (pMAL-c5X fusion); label: biotin; blunt
T1 sequence: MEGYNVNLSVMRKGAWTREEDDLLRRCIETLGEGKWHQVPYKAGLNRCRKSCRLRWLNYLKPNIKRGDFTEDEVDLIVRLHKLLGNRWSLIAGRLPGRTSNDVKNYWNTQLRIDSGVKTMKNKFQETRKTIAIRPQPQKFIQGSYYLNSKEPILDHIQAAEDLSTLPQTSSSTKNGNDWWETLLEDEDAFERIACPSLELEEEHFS

MdMYB90-like [2] = molecular target: T1, MdMYB90-like; test: competition; unlabeled mutant did not reduce binding to N3; EMSA, Beyotime Chemiluminescent EMSA Kit, 1x kit binding buffer, 10 uL total; salt, pH and temperature not stated; conditions: protein: recombinant; tags: MBP (pMAL-c5X fusion); blunt
MdMYB90-like [3] = molecular target: T1, MdMYB90-like; test: competition; unlabeled mutant did not reduce binding to N5; EMSA, Beyotime Chemiluminescent EMSA Kit, 1x kit binding buffer, 10 uL total; salt, pH and temperature not stated; conditions: protein: recombinant; tags: MBP (pMAL-c5X fusion); blunt
MdMYB90-like [4] = molecular target: T1, MdMYB90-like; test: competition; unlabeled mutant did not reduce binding to N1; EMSA, Beyotime Chemiluminescent EMSA Kit, 1x kit binding buffer, 10 uL total; salt, pH and temperature not stated; conditions: protein: recombinant; tags: MBP (pMAL-c5X fusion); blunt
MdMYB90-like [5] = molecular target: T1, MdMYB90-like; test: competition; unlabeled mutant did not reduce binding to N7; EMSA, Beyotime Chemiluminescent EMSA Kit, 1x kit binding buffer, 10 uL total; salt, pH and temperature not stated; conditions: protein: recombinant; tags: MBP (pMAL-c5X fusion); blunt

B1: UFGT probe (dsDNA)
DNA 1: TGGTACAAACAACTGCAATAAAATA
DNA 2: TATTTTATTGCAGTTGTTTGTACCA
B1: binds (MdMYB90-like [1]).

B2: MYB1 probe (dsDNA)
DNA 1: CGGACCACTCAACGGAACAAATAAG
DNA 2: CTTATTTGTTCCGTTGAGTGGTCCG
B2: binds (MdMYB90-like [1]).

B3: UFGTm probe (dsDNA)
DNA 1: TGGTACAAATGGTAACAATAAAATA
DNA 2: TATTTTATTGTTACCATTTGTACCA
B3: no binding (MdMYB90-like [2]).

B4: BHLH3m probe (dsDNA)
DNA 1: CCTGCTCACTGGTAAATCAAACCCA
DNA 2: TGGGTTTGATTTACCAGTGAGCAGG
B4: no binding (MdMYB90-like [3]).

B5: BHLH3 probe (dsDNA)
DNA 1: CCTGCTCACTAACCAATCAAACCCA
DNA 2: TGGGTTTGATTGGTTAGTGAGCAGG
B5: binds (MdMYB90-like [1]).

B6: CHSm probe (dsDNA)
DNA 1: GACTAATTTTGGTAACTCCCAAAGT
DNA 2: ACTTTGGGAGTTACCAAAATTAGTC
B6: no binding (MdMYB90-like [4]).

B7: CHS probe (dsDNA)
DNA 1: GACTAATTTCAACTGCTCCCAAAGT
DNA 2: ACTTTGGGAGCAGTTGAAATTAGTC
B7: binds (MdMYB90-like [1]).

B8: MYB1m probe (dsDNA)
DNA 1: CGGACCACTTGGTAAAACAAATAAG
DNA 2: CTTATTTGTTTTACCAAGTGGTCCG
B8: no binding (MdMYB90-like [5]).
